According to the supplement of paper PMC12764529:
± gives the half width of the 95% confidence interval.

Key:
[1] = folding stability dG unfold from chymotrypsin proteolysis; higher = more stable
Procedure: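 Folding stability of de novo designed mini-proteins (<80 aa, no Cys; designed by TrROS, TrMRF, ProteinMPNN and the joint model) was measured by cDNA display proteolysis with trypsin and chymotrypsin. Each protease was used at 11 concentrations in a threefold dilution series plus a no-protease condition. K50 was inferred by Bayesian fitting of sequencing counts, and dG unfold was derived against a sequence-predicted unfolded-state K50 (Tsuboyama et al. method). Sequences shown include variable-length N-terminal GS-type padding (SAGGSAGG...) inside a display construct carrying a PA tag. Rows were kept only if the AF2 dimer inter-PAE was >15, to exclude likely homo-oligomers.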

[2] = folding stability dG unfold (combined trypsin and chymotrypsin); higher = more stable
In short: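 Designed mini-proteins (under 80 residues, no cysteine) in a PA-tagged cDNA display construct were digested with trypsin and chymotrypsin. Each protease was used at 11 concentrations (threefold dilutions) plus a no-protease condition, followed by sequencing. K50 was inferred by Bayesian fitting of sequencing counts, and unfolding free energy was derived against a sequence-predicted unfolded-state K50 and a shared folded-state K50, per protease or combined. Only designs with AlphaFold2 dimer inter-PAE above 15 were kept.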

Row | Sequence | folding stability dG unfold [1] | folding stability dG unfold [2]
1 | SAGGSAGGMREIEHEIPNPNGRNIKIKIEYDPDQGWHPVEIENPGNGKKKTYPFDSADEVLDQLSAGGSAGG [r6_465_TrROS] | 0.598 ± 0.031 kcal/mol | 0.0475 ± 0.17 kcal/mol
2 | SAGGSAGGMTIKELLKEGVPFKIEMYGPNNGEPREFKIPPGESIDDILENMPFPPGMQIRIEPKSAGGSAGG [r6_232_TrROS] | 0.121 ± 0.31 kcal/mol | -0.142 ± 0.42 kcal/mol
3 | SAGGSAGGMVITFTAPDGTPLGTVEVELPPNNPEAEEEARELAEALRAELEEAGRPVAATVEPASAGGSAGG [r6_884_JUSTAS] | 0.903 ± 0.088 kcal/mol | 0.309 ± 0.14 kcal/mol
4 | SAGGSAGGNTIELPLPNGMELEIPVQKNPEGYYQVNIERYDPDDGKKKEIPFTMPAEDIKDFLKSAGGSAGG [r6_859_TrROS] | -0.205 ± 0.29 kcal/mol | -0.785 ± 0.36 kcal/mol
5 | SAGGSAGGPPPVRVTIETETTTTFPNGTPRTTTNTVVLDAPEEEAEAAVAAIPASVVKSVARTGSAGGSAGG [r6_985_JUSTAS] | 0.486 ± 0.057 kcal/mol | -0.187 ± 0.24 kcal/mol
6 | SAGGSAGGSAAPDLVTETETRTHPETGLVITRERVTLPSTGTTEERTVVTDPETGVTTTEKSSAGGSAGGSA [r18_383_JUSTAS] | 0.294 ± 0.038 kcal/mol | -0.139 ± 0.13 kcal/mol
7 | SAGGSAGGSAGAYSATPVEERRLPDGSTLVRERVTDPATGTPALREVLVTDEGVEERLLPSAGGSAGGSAGG [r11_991_JUSTAS] | 0.415 ± 0.098 kcal/mol | -0.458 ± 0.1 kcal/mol
8 | SAGGSAGGSAGEAASSLKLPPVTLTTPPVPVELPPGLTVESVEPVRTPSGETILVVNLVRSAGGSAGGSAGG [r11_388_JUSTAS] | 0.279 ± 0.13 kcal/mol | -0.349 ± 0.19 kcal/mol
9 | SAGGSAGGSAGGDEILELERIPETGELVLRRITPDGEGFRIEEEVVPVGPELAEALPEGSAGGSAGGSAGGS [r10_291_TrMRF] | -0.279 ± 0.34 kcal/mol | < -1 kcal/mol
10 | SAGGSAGGSAGGDPDLPVYSVSPTTIPAPPGQDSPTPGPNSVTVDANGTATVTETSVSLVSAGGSAGGSAGG [r7_556_JUSTAS] | -0.6 ± 0.2 kcal/mol | < -1 kcal/mol
11 | SAGGSAGGSAGGDVNSPNIPPVLTVEPVEVLDPGGGGLRRRVVYVAPGGIVLETEERPESAGGSAGGSAGGS [r10_261_JUSTAS] | 0.702 ± 0.12 kcal/mol | 0.156 ± 0.16 kcal/mol
12 | SAGGSAGGSAGGGMEFSTVTVKRTLKTLGKTEVTTVPVVNPVPPPPPLGPENIARSRGVLSAGGSAGGSAGG [r7_79_JUSTAS] | -0.0494 ± 0.21 kcal/mol | < -1 kcal/mol
13 | SAGGSAGGSAGGGMKLRLVTYSITTTNKVFPSLEEALAAPPDETDGVDEIISSSLKPLLSAGGSAGGSAGGS [r10_729_JUSTAS] | 0.21 ± 0.17 kcal/mol | -0.326 ± 0.15 kcal/mol
14 | SAGGSAGGSAGGGMTTTYTTETIEAPDGTVVIKKTTTYDYGNGSLTKPTIYNPDGTPIGSAGGSAGGSAGGS [r10_1056_JUSTAS] | 0.452 ± 0.14 kcal/mol | -0.188 ± 0.12 kcal/mol
15 | SAGGSAGGSAGGGPAKALITSPDGSKAEATVTVDTATGTVTLTVENASLPPDWKLELLGSAGGSAGGSAGGS [r10_306_TrMRF] | 0.768 ± 0.065 kcal/mol | 0.0987 ± 0.23 kcal/mol
16 | SAGGSAGGSAGGGPGFTVLERREDPATGTVTILRRFAFPDGSTALEPRVVPRAPDERLESAGGSAGGSAGGS [r10_605_JUSTAS] | -0.0135 ± 0.17 kcal/mol | < -1 kcal/mol
17 | SAGGSAGGSAGGGPPVERVTTETILRPDGTTTTTRKTTVVPPTDTVTTTTTTLTTTPVTSAGGSAGGSAGGS [r10_1139_JUSTAS] | 0.328 ± 0.067 kcal/mol | 0.0441 ± 0.18 kcal/mol
18 | SAGGSAGGSAGGGRVLRLADGKWRLVELPDGSVVLVPENVPVLDPEAKEPVLVAPVLPLDSAGGSAGGSAGG [r7_968_TrMRF] | 0.938 ± 0.073 kcal/mol | 0.223 ± 0.06 kcal/mol
19 | SAGGSAGGSAGGGSVTRLPDGVTTVVTFPDGSTVTVPAGVPYTDPNAATPVTVSPVPPALSAGGSAGGSAGG [r7_968_JUSTAS] | 0.119 ± 0.1 kcal/mol | < -1 kcal/mol
20 | SAGGSAGGSAGGGYVTLSHEIPPDQSVEITAPDGKKAKQERDPATKTVTYKISPELYKLLSAGGSAGGSAGG [r7_155_JUSTAS] | -0.855 ± 0.56 kcal/mol | < -1 kcal/mol
21 | SAGGSAGGSAGGKDEKPKPLKVPVIVAPAPEYLELAKKLLPPDKAKVIEKKDDKVVIAFGSAGGSAGGSAGG [r7_670_TrMRF] | -0.425 ± 0.32 kcal/mol | -0.533 ± 0.21 kcal/mol

Row | Sequence | folding stability dG unfold [1] | folding stability dG unfold [2]
22 | SAGGSAGGSAGGKKKVKILEVKKIPELNEIVVVIETENGKPVLVPLKPGKTLEDVKKEISAGGSAGGSAGGS [r10_984_TrMRF] | 0.913 ± 0.042 kcal/mol | 0.44 ± 0.21 kcal/mol
23 | SAGGSAGGSAGGKLTLKLGDYEVEVEWNPDEDVFIAEFPGDPRIARLRIPDDKIEIEPIESAGGSAGGSAGG [r7_156_TrMRF] | 0.819 ± 0.12 kcal/mol | 0.392 ± 0.11 kcal/mol
24 | SAGGSAGGSAGGKPITIERNEDNGPIEIRFPGNGRRIHFPFPPGDDITIDAEDGNIEIKSAGGSAGGSAGGS [r10_979_TrROS] | 0.827 ± 0.016 kcal/mol | 0.314 ± 0.086 kcal/mol
25 | SAGGSAGGSAGGKPTIKLKVTITNENGEKIEIEVEAESEEEALEALKALLPPGWKVEIESAGGSAGGSAGGS [r10_145_TrROS_Hall] | 2.82 ± 0.2 kcal/mol | 4.21 ± 0.67 kcal/mol
26 | SAGGSAGGSAGGKPVKVKVVIPVPDGDEVLVLEVEVEGEGGEEAVRQALEVAAELLREGSAGGSAGGSAGGS [r10_863_TrMRF] | 0.768 ± 0.088 kcal/mol | 0.0842 ± 0.23 kcal/mol
27 | SAGGSAGGSAGGKRRIQIPPDDPGMTAEQLADRLQKEFPENGVPVEITNIDDYGYIEIESAGGSAGGSAGGS [r10_579_TrROS] | 0.962 ± 0.021 kcal/mol | 0.443 ± 0.088 kcal/mol
28 | SAGGSAGGSAGGLHPDQEFAVRLDLDLDLRLGPGADLRVSDVRVGGVRVYDLRTGRWLDSAGGSAGGSAGGS [r10_248_TrMRF] | 0.445 ± 0.15 kcal/mol | -0.323 ± 0.25 kcal/mol
29 | SAGGSAGGSAGGLKELADKLNPGFEIRVENIEPTPGPVRINVRAPNEGVPRSIPIDPDDISAGGSAGGSAGG [r7_303_TrROS] | 0.993 ± 0.018 kcal/mol | 0.479 ± 0.043 kcal/mol
30 | SAGGSAGGSAGGLLRAPDGSTAIVVRDASPETVARALHELNPNAVIVVAPIPNVAVIYLDSAGGSAGGSAGG [r7_370_TrMRF] | 0.178 ± 0.1 kcal/mol | -0.575 ± 0.51 kcal/mol
31 | SAGGSAGGSAGGLPPGQKYVIKMYNPNGKRQEHEFEIPPGEPFKDFEFPNGWRYDIYPVKSAGGSAGGSAGG [r7_132_TrROS] | 0.0841 ± 0.29 kcal/mol | -0.321 ± 0.42 kcal/mol
32 | SAGGSAGGSAGGMAVVVDSPEEAEEVIEELERSFPALGAKVVVPRVQVGDKLVLPLGLELSAGGSAGGSAGG [r7_588_TrMRF] | 0.0463 ± 0.068 kcal/mol | -0.501 ± 0.15 kcal/mol
33 | SAGGSAGGSAGGMIKVLEKKEFTPPTGGKEYELKTLDESNGTESIIKFPKEEYKNLKIPSAGGSAGGSAGGS [r10_326_JUSTAS] | 0.681 ± 0.12 kcal/mol | 0.145 ± 0.2 kcal/mol
34 | SAGGSAGGSAGGMILTGDRAEILARLEAEGLGVAEEETVEEGDAPVTPVRVEVPPGAAGSAGGSAGGSAGGS [r10_885_JUSTAS] | 0.972 ± 0.028 kcal/mol | 0.561 ± 0.11 kcal/mol
35 | SAGGSAGGSAGGMITVNPRGGTATFTTSSGETTTVPASLADQVRVDTGLPDAPVFTAPPASAGGSAGGSAGG [r7_235_JUSTAS] | 0.183 ± 0.23 kcal/mol | < -1 kcal/mol
36 | SAGGSAGGSAGGMKVTVEYPDALSVEVEPDSATTTYPNGSRIVVEAPGVTTYDPLPPERSSAGGSAGGSAGG [r7_30_JUSTAS] | 0.117 ± 0.046 kcal/mol | -0.39 ± 0.24 kcal/mol
37 | SAGGSAGGSAGGMLPFEVLEVTTSTGKGKTTRTVLAREPEGPEVVLTFSPASPEEIERLLSAGGSAGGSAGG [r7_365_JUSTAS] | 0.735 ± 0.13 kcal/mol | 0.224 ± 0.13 kcal/mol
38 | SAGGSAGGSAGGMNTPIVVETEDLPSSRPVEEVKAEAAPKGYTEVKAYPDGTVVITKVRSSAGGSAGGSAGG [r11_961_JUSTAS] | 0.607 ± 0.047 kcal/mol | 0.164 ± 0.21 kcal/mol
39 | SAGGSAGGSAGGMPSSVVINLNLSKEEIEAIKKGKPVSPELKPAIEEAKKEGLKVEIKKSAGGSAGGSAGGS [r10_890_JUSTAS] | 0.796 ± 0.037 kcal/mol | 0.309 ± 0.13 kcal/mol
40 | SAGGSAGGSAGGMPVPRRLEIVVEPEYTEEEIEKIKKELIENGNPEIEEVVVVLPPNLESAGGSAGGSAGGS [r10_233_JUSTAS] | 0.285 ± 0.04 kcal/mol | -0.385 ± 0.36 kcal/mol
41 | SAGGSAGGSAGGMRITIDDWDPDEGPYRVKVTNPDNNKKKTMPYENLEELAKEGPVEIHRSAGGSAGGSAGG [r7_452_TrROS] | 0.368 ± 0.18 kcal/mol | -0.143 ± 0.13 kcal/mol
42 | SAGGSAGGSAGGMTITVPVEGVEEAIEKAKKEHPNTEIKITLLKPGGEKATTRTVKILGSAGGSAGGSAGGS [r10_741_JUSTAS] | -0.403 ± 0.13 kcal/mol | -0.951 ± 0.29 kcal/mol
